Data as given in publication PMC3193378 (European Journal of Immunology, 2011).

What was measured:
[1] = target: T1, soluble CD14 protein (sCD14, aa 1-352) (human, UniProt P08571 20-352); test: pull-down
T1 sequence (looked up): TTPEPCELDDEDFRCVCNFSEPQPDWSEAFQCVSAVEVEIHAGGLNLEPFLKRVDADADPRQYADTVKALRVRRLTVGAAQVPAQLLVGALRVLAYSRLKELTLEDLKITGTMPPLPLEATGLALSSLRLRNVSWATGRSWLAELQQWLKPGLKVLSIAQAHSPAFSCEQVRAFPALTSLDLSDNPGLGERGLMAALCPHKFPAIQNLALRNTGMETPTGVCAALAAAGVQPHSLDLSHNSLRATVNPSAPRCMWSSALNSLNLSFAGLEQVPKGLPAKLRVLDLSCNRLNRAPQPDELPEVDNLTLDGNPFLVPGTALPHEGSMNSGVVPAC

[2] = target: T1, soluble CD14 protein (sCD14, aa 1-352); test: ELISA

binding result [1]	binding result [2]	Binder
binds		GST-HMGB1 (natural protein, human, UniProt P09429 1-215, looked up) MGKGDPKKPRGKMSSYAFFVQTCREEHKKKHPDASVNFSEFSKKCSERWKTMSAKEKGKFEDMAKADKARYEREMKTYIPPKGETKKKFKDPNAPKRPPSAFFLFCSEYRPKIKGEHPGLSIGDVAKKLGEMWNNTAADDKQPYEKKAAKLKEKYEKDIAAYRAKGKPDAAKKGVVKAEKSKKKKEEEEDEEDEEDEEEEEDEEDEDEEEDDDDE
	binds	6-His-tagged HMGB1 B box protein (aa 88-162) (domain or fragment, human, UniProt P09429 88-162, looked up) KFKDPNAPKRPPSAFFLFCSEYRPKIKGEHPGLSIGDVAKKLGEMWNNTAADDKQPYEKKAAKLKEKYEKDIAAY
